Target: antigen derived from p95HER2 (protein sequence …)
Experiment: indirect ELISA, antigen coated at 2.5 ug/mL, antibody in 3-fold dilutions from 3.0 ug/mL, absorbance at 450 nm
Protocol: Antibody binding was determined by indirect ELISA. A microtitre plate was coated with 50 μL antigen (protein sequence: […]) (SEQ ID NO: 36) at 2.5 μg/mL for 1 hour with shaking at 300 rpm then blocked with 200 μL 1% casein in PBS for 16 hours at 4° C. The plate was washed twice with PBS containing 0.05% Tween-20. In a separate offline microplate, antibody test samples were prepared in duplicate in a 3-fold serial dilution starting at 3.0 ug/mL. 50 μL of each test sample was transferred to the assay plate and incubated for 1 hour with shaking at 300 rpm. The plate was washed four times with PBS containing 0.05% Tween-20. 50 μL of horse radish peroxidase (HRP) labelled anti-human IgG antibody (catalogue number A8792, Sigma) at a dilution of 1:4000 was added to each well and incubated for 1 hour with shaking at 300 rpm. The plate was washed four times with PBS containing 0.05% Tween-20 and twice with water. 100 μL Tetramethylbenzidine (TMB) substrate (catalogue number 10076433, Fisher) was added and incubated for 10 minutes. The reaction was stopped by addition of 50 μL IM HCl and absorbance was measured at 450 nm using a Byonoy plate reader.

Binder | binding result
parental Oslo-2 monoclonal antibody (antibody, V domains shown, also called Oslo-2 antibody; Oslo-2 parental antibody) VH: EVQILETGGGLVKPGGSLRLSCATSGFNFNDYFMNWVRQAPGKGLEWIAQIRNKNYNYATYFAESLEGRFTISRDDSKSSVYLQVNSLRAEDTALYYCTELRYDYWGQGVMVTVSS VL: DIVMTQSPFSLAVSEGEMVTINCKSSQSLLSSGNQKNNLAWYQQKPGQSPKLLIYYASTRQSGVPDRFIGSGSGTDFTLTISDVQAEDLADYYCLQHYSSPYTFGAGTKLELK | binds
Oslo-2 mAb variant Mutant 5 (L:S31M) (antibody, V domains shown, Only variable domains are tied to the molecule; also called Variant 5; variant 5) VH: EVQILETGGGLVKPGGSLRLSCATSGFNFNDYFMNWVRQAPGKGLEWIAQIRNKNYNYATYFAESLEGRFTISRDDSKSSVYLQVNSLRAEDTALYYCTELRYDYWGQGVMVTVSS VL: DIVMTQSPFSLAVSEGEMVTINCKSSQSLLMSGNQKNNLAWYQQKPGQSPKLLIYYASTRQSGVPDRFIGSGSGTDFTLTISDVQAEDLADYYCLQHYSSPYTFGAGTKLEIK | binds
Oslo-2 mAb variant Mutant 4 (L:S31W/L:H107W) (antibody, V domains shown, Only variable domains are tied to the molecule; also called Variant 4; variant 4) VH: EVQILETGGGLVKPGGSLRLSCATSGFNFNDYFMNWVRQAPGKGLEWIAQIRNKNYNYATYFAESLEGRFTISRDDSKSSVYLQVNSLRAEDTALYYCTELRYDYWGQGVMVTVSS VL: DIVMTQSPFSLAVSEGEMVTINCKSSQSLLWSGNQKNNLAWYQQKPGQSPKLLIYYASTRQSGVPDRFIGSGSGTDFTLTISDVQAEDLADYYCLQWYSSPYTFGAGTKLEIK | binds

Source: US20260263520A1 (OSLO UNIVERSITETSSYKEHUS HF, published 2026)
